For assay [1], the target named is wild-type murine JAK2 (expressed in COS cells from pRK5) (murine).
The target is the same in assay [2]. This is another data set of the same source.

Consider two substances from patent publication US6312941.

Take “Myc-tagged SH2-Bβn (truncated at amino acid 555, lacks the SH2 domain)”: the tyrosine phosphorylation of JAK2 (αJAK2 immunoprecipitate, anti-PY blot, densitometry normalised to JAK2) in assay [1] came out at 90%. Take “HA-tagged SH2-Bβc (expressed in COS cells)”: the tyrosyl phosphorylation of JAK2 (αMyc immunoprecipitate, anti-phosphotyrosine blot) in assay [2] is 3 fold.
